{
  "source": "patent US20140017269A1",
  "about": "(CHILDREN S HOSPITAL MEDICAL CENTER, published 2014)",
  "proteins": {"B1": {"name": "NoV P^--M2e protein (other)", "chain": "SRTKPFTVPILTVEEMSNSRFPIPLEKLYTGPSSAFVVQPQNGRCTTDGVLLGTTQLSAVNICTFRGDVTHIAGSHDYIMNLASQNWNNYDPTEEIPAPLGTPDFVGKIQGMLTQTTREDGSTRAHKATVSTGTVHFTPKLGSVQYTTSSLLTEVETPIRNEWGCRCNDSSDIDILQTGQNTKFTPVGVIQDGNNHQNEPQQWVLPNYSGRTGHNVHLAPAVAPTFPGEQLLFFRSTMPGCSGYPNMNLDCLLPQEWVQHFYQEAAPAQSDVALLRFVNPDTGRVLFECKLHKSGYVTVAHTGPHDLVIPPNGYFRFDSWVNQFYTLAPMGNGAGR", "notes": "also called NoV P^--M2e dimer"}},
  "target": "the molecule itself",
  "experiment": "method not given; self-association",
  "data": [
    {"protein": "B1", "values": [
      {"measurement": "binding result", "result": "binds"}
    ]}
  ]
}
